Key:
activin A [1] = molecular target: T1, activin A (UniProt P08476 311-426); assay: cell-based or functional assay
T1 construct: Soluble ligand injected in SPR or added in the reporter assay
T1 sequence (looked up): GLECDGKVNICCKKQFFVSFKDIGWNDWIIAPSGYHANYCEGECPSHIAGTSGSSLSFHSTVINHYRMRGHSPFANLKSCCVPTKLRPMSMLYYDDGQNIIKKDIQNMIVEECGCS

GDF11 [2] = molecular target: T2, GDF11 (UniProt O95390 299-407); assay: cell-based or functional assay
T2 construct: also called Growth and differentiation factor-11; BMP11
T2 sequence (looked up): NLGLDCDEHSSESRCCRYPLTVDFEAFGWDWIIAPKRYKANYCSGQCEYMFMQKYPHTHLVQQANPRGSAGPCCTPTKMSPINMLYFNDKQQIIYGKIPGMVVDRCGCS

BMP9 [3] = molecular target: T3, BMP9 (UniProt Q9UK05 320-429); assay: cell-based or functional assay
T3 sequence (looked up): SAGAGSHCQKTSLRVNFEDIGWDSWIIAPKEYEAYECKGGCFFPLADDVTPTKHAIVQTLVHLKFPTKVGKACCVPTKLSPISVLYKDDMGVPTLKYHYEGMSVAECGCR

Activin A [4] = molecular target: T4, Activin A (Homo sapiens, UniProt P08476); assay: Biacore-based binding assay (surface plasmon resonance), activin A; conditions: for activin A binding compared to ActRIIB-G1Fc (in words): FIGS. 8A and 8B
T4 sequence (P08476 311-426): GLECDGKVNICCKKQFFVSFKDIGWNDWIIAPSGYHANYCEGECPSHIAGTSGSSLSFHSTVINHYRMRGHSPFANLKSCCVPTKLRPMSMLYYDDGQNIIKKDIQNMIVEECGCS
Description: (§1) To determine ligand binding profiles of variant ActRIIB-Fc homodimers, a Biacore™-based binding assay was used to compare ligand binding kinetics of certain variant ActRIIB-Fc polypeptides. ActRIIB-Fc polypeptides to be tested were independently captured onto the system using an anti-Fc antibody. Ligands were then injected and allowed to flow over the captured receptor protein. ActRIIB-G1Fc was used as the control polypeptide.
as §1, with “protein.” for “protein. ActRIIB-G1Fc was used as the control polypeptide.”
(§2) A Biacore™-based binding assay was used to compare the ligand binding kinetics of an ActRIIB-Fc:ActRIIB(L79E)-Fc heterodimer with those of unmodified ActRIIB-Fc homodimer. Fusion proteins were captured onto the system using an anti-Fc antibody. Ligands were then injected and allowed to flow over the captured receptor protein at 37° C. Results are summarized in the table below, in which ligand off-rates (kd) most indicative of effective ligand traps are denoted in bold.

Activin B = molecular target: T5, Activin B (Homo sapiens, UniProt P09529); assay: Biacore-based binding assay (surface plasmon resonance), activin B; conditions: for affinity for activin B compared to unmodified ActRIIB-Fc (in words): SPR 37° C., compared to ActRIIB-G1Fc / ActRIIB-Fc homodimer
T5 sequence (P09529 293-407): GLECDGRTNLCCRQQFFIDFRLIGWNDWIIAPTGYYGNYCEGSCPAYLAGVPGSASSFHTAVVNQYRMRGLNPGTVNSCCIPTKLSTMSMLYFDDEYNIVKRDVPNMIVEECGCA
Description: as §1, §2

BMP9 [5] = molecular target: T6, BMP9 (Homo sapiens, UniProt Q9UK05); assay: Biacore-based binding assay (surface plasmon resonance), BMP9; conditions: for binding to BMP9 compared to unmodified ActRIIB-Fc (in words): SPR 37° C., compared to ActRIIB-G1Fc / ActRIIB-Fc homodimer
T6 sequence (Q9UK05 320-429): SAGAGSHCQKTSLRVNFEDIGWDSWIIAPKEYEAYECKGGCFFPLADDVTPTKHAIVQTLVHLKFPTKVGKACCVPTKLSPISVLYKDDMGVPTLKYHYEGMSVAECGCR
Description: as §1
as §1, with “protein.” for “protein. ActRIIB-G1Fc was used as the control polypeptide.”
as §2

BMP10 = molecular target: T7, BMP10 (Homo sapiens, UniProt O95393); assay: Biacore-based binding assay (surface plasmon resonance), BMP10; conditions: for BMP10 binding compared to ActRIIB-G1Fc (in words): FIGS. 8A and 8B
T7 sequence (O95393 317-424): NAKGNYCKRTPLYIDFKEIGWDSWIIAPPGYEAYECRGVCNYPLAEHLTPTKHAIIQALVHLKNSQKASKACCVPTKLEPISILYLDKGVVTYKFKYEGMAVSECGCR
Description: as §1, §2

GDF3 = molecular target: T8, GDF3 (Homo sapiens, UniProt Q9NR23); assay: Biacore-based binding assay (surface plasmon resonance), GDF3; conditions: 37° C., capture by anti-Fc antibody
T8 sequence (Q9NR23 251-364): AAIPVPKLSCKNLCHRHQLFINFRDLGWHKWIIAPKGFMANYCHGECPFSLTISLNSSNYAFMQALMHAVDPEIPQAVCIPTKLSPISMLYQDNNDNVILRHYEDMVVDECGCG
Description: as §2

GDF8 = molecular target: T9, GDF8 (Homo sapiens, UniProt O14793); assay: Biacore-based binding assay (surface plasmon resonance), GDF8
T9 sequence (O14793 267-375): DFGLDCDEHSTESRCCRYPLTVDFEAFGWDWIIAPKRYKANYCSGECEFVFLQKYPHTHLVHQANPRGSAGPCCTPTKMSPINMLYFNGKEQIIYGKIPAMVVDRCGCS
Description: as §1, §2

GDF11 [6] = molecular target: T10, GDF11 (Homo sapiens, UniProt O95390); assay: Biacore-based binding assay (surface plasmon resonance), GDF11
T10 sequence (O95390 299-407): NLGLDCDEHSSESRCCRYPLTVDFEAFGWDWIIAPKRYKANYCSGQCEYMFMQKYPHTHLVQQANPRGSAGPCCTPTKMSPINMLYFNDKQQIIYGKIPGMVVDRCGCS
Description: as §1
as §1, with “protein.” for “protein. ActRIIB-G1Fc was used as the control polypeptide.”
as §2

BMP6 = molecular target: T11, BMP6 (Homo sapiens, UniProt P22004); assay: Biacore-based binding assay (surface plasmon resonance), BMP6
T11 sequence (P22004 375-513): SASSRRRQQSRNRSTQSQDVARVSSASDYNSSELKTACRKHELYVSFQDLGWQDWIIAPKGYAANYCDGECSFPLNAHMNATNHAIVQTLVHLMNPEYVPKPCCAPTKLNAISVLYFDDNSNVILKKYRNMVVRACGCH
Description: as §2

[7] = 37° C., capture by anti-Fc antibody
[8] = SPR 37° C., compared to ActRIIB-G1Fc / ActRIIB-Fc homodimer
[9] = 37° C., capture by anti-Fc antibody, Transient*: indeterminate due to transient nature of interaction

E50K (homodimeric ActRIIB-Fc construct) (Fc fusion)
IC50 (ng/ml), A204 CAGA12 luciferase reporter assay (activin A [1]): 132 ng/mL | IC50 (ng/ml), A204 CAGA12 luciferase reporter assay (GDF11 [2]): 180 ng/mL | IC50 (ng/ml), A204 CAGA12 luciferase reporter assay (BMP9 [3]): 721 ng/mL

L79H: homodimeric ActRIIB-G1Fc fusion with L79H substitution; mature SEQ ID NO: 344
activin A binding compared to ActRIIB-G1Fc (in words) (Activin A [4]; SPR 37° C.): significant decrease | affinity for activin B compared to unmodified ActRIIB-Fc (in words) (Activin B): relatively high affinity for activin B | binding to BMP9 compared to unmodified ActRIIB-Fc (in words) (BMP9 [5]): decrease in binding to BMP9 | BMP10 binding compared to ActRIIB-G1Fc (in words) (BMP10; SPR 37° C.): decrease in BMP10 binding

E52A (homodimeric ActRIIB-Fc construct) (Fc fusion)
IC50 (ng/ml), A204 CAGA12 luciferase reporter assay (activin A [1]): 198 ng/mL | IC50 (ng/ml), A204 CAGA12 luciferase reporter assay (GDF11 [2]): 71 ng/mL | IC50 (ng/ml), A204 CAGA12 luciferase reporter assay (BMP9 [3]): 359 ng/mL

L79H-F82I: homodimeric ActRIIB-G1Fc fusion with L79H and F82I substitutions; mature SEQ ID NO: 341
activin A binding compared to ActRIIB-G1Fc (in words) (Activin A [4]; SPR 37° C.): significant decrease | affinity for activin B compared to unmodified ActRIIB-Fc (in words) (Activin B): relatively high affinity for activin B | binding to BMP9 compared to unmodified ActRIIB-Fc (in words) (BMP9 [5]): decrease in binding to BMP9 | BMP10 binding compared to ActRIIB-G1Fc (in words) (BMP10; SPR 37° C.): decrease in BMP10 binding

E50P (homodimeric ActRIIB-Fc construct) (Fc fusion)
IC50 (ng/ml), A204 CAGA12 luciferase reporter assay (activin A [1]): 756 ng/mL | IC50 (ng/ml), A204 CAGA12 luciferase reporter assay (GDF11 [2]): 638 ng/mL | IC50 (ng/ml), A204 CAGA12 luciferase reporter assay (BMP9 [3]): 3000 ng/mL

B1: ActRIIB-Fc:ActRIIB(L79E)-Fc heterodimer: heteromeric complex of unmodified human ActRIIB-Fc and ActRIIB(L79E)-Fc, each fused to a G1Fc domain with linker (protein)
chain 1: GRGEAETRECIYYNANWELERTNQSGLERCEGEQDKRLHCYASWRNSSGTIELVKKGCWEDDFNCYDRQECVATEENPQVYFCCCEGNFCNERFTHLPEAGGPEVTYEPPPTAPTGGGTHTCPPCPAPELLGGPSVFLFPPKPKDTLMISRTPEVTCVVVDVSHEDPEVKFNWYVDGVEVHNAKTKPREEQYNSTYRVVSVLTVLHQDWLNGKEYKCKVSNKALPAPIEKTISKAKGQPREPQVYTLPPSREEMTKNQVSLTCLVKGFYPSDIAVEWESNGQPENNYDTTPPVLDSDGSFFLYSDLTVDKSRWQQGNVFSCSVMHEALHNHYTQKSLSLSPG
chain 2: GRGEAETRECIYYNANWELERTNQSGLERCEGEQDKRLHCYASWRNSSGTIELVKKGCWLDDFNCYDRQECVATEENPQVYFCCCEGNFCNERFTHLPEAGGPEVTYEPPPTAPTGGGTHTCPPCPAPELLGGPSVFLFPPKPKDTLMISRTPEVTCVVVDVSHEDPEVKFNWYVDGVEVHNAKTKPREEQYNSTYRVVSVLTVLHQDWLNGKEYKCKVSNKALPAPIEKTISKAKGQPREPQVYTLPPSRKEMTKNQVSLTCLVKGFYPSDIAVEWESNGQPENNYKTTPPVLKSDGSFFLYSKLTVDKSRWQQGNVFSCSVMHEALHNHYTQKSLSLSPGK
ka Activin A (Activin A [4]; [7]): 8.8e+06 M⁻¹ s⁻¹ | kd Activin A (Activin A [4]; [7]): 0.0015 s⁻¹ | off-rate for activin A compared to ActRIIB-Fc homodimer (Activin A [4]; SPR 37° C.): approximately ten-fold faster off-rates | ka Activin B (Activin B; [7]): 8.3e+06 M⁻¹ s⁻¹ | kd Activin B (Activin B; [7]): 0.00021 s⁻¹ | affinity for activin B compared to unmodified ActRIIB-Fc (in words) (Activin B): largely retained high-affinity binding | ka GDF3 (GDF3): 580000 M⁻¹ s⁻¹ | kd GDF3 (GDF3): 0.0059 s⁻¹ | ka GDF8 (GDF8; [7]): 3.4e+06 M⁻¹ s⁻¹ | kd GDF8 (GDF8; [7]): 0.0005 s⁻¹ | GDF8 binding compared to unmodified ActRIIB-Fc (in words) (GDF8; [8]): largely retained high-affinity binding | ka GDF11 (GDF11 [6]; [7]): 4e+07 M⁻¹ s⁻¹ | kd GDF11 (GDF11 [6]; [7]): 0.00036 s⁻¹ | GDF11 binding compared to unmodified ActRIIB-Fc (in words) (GDF11 [6]; [8]): largely retained high-affinity binding | ka BMP6 (BMP6; [7]): 3.3e+08 M⁻¹ s⁻¹ | kd BMP6 (BMP6; [7]): 0.018 s⁻¹ | BMP6 binding compared to ActRIIB-Fc homodimer (in words) (BMP6; SPR 37° C.): largely retained high-affinity binding | ka BMP9 (BMP9 [5]; [9]): Transient* | kd BMP9 (BMP9 [5]; [9]): Transient* | binding to BMP9 compared to unmodified ActRIIB-Fc (in words) (BMP9 [5]): even greater reduction in the strength of binding to BMP9 | ka BMP10 (BMP10; [7]): 4.8e+07 M⁻¹ s⁻¹ | kd BMP10 (BMP10; [7]): 0.002 s⁻¹ | off-rate for BMP10 compared to ActRIIB-Fc homodimer (BMP10; SPR 37° C.): approximately ten-fold faster off-rates

From patent publication US20240181007A1, “COMPOSITIONS AND METHODS FOR TREATING PULMONARY HYPERTENSION” (Acceleron Pharma Inc., priority 2021, published 2024)
